Experimental findings from the supplement of paper PMC7877785 are described below.

± gives the uncertainty stated by the source.

A short description of this series: self-splicing fitness, log relative to wild type (ln ratio); higher = more splicing; Tetrahymena group I intron in knt gene, E. coli kanamycin selection, DiMSum; sequences stand for … in CUCUCU…GGAGGGAAAAGUUAUCAGGCAUGCACCUGGUAGCUAGUCUUUAAACCAAUAGAUUGCAUCGGUUUAAAAGGCAAGACCGUCAAAUUGCGGGAAAGGGGUCAACAGCCGUUCAGUACCAAGUCUCAGGGGAAACUUUGAGAUGGCCUUGCAAAGGGUAUGGUAAUAAGCUGACGGACAUGGUCCUAACCACGCAGCCAAGUCCUAAGUCAACAGAUCUUCUGUUGAUAUGGAUGCAGUUCACAGACUAAAUGUCGGUCGGGGAAGAUGUAUUCUUCUCAUAAGAUAUAGUCGGACCUCUCCUUAAUGGGAGCUAGCGGAUGAAGUGAUGCAACACUGGAGCCGCUGGGAACUAAUUUGUAUGCGAAAGUAUAUUGAUUAGUUUUGGAGUACUCGUGGUCG
In short, it runs like this:
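DiMSum derived fitness as the error-weighted combination of fold changes across replicates, kanamycin versus no kanamycin, normalised to wild type. E. coli BL21(DE3) held the library, which randomised all eight P1ex-region intron nucleotides within the knt kanamycin-resistance gene on pET-22b(+). Six replicate transformations grew overnight at 37°C or 30°C on LB agar with or without 25 μg/mL kanamycin, also containing 100 μg/mL carbenicillin, 50 μM IPTG and 0.2% rhamnose, and pooled colonies were amplicon-sequenced on an Illumina HiSeq 2500.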

On to UAUGAGCAAUAUUACGAACC, for which the “self-splicing fitness (ln)” value (30 °C) was -2.34 ± 0.4.
Regarding AUGGAGCAAUAUUACGUAUA, the “self-splicing fitness (ln)” value (30 °C) is -1.75 ± 0.45 and the “self-splicing fitness (ln)” value (37 °C) was -2.02 ± 0.36.
For the sequence CCGAAGCAAUAUUACGCAAA, the “self-splicing fitness (ln)” value (37 °C) was -2.17 ± 0.38.
As for AAGGAGCAAUAUUACGUCUG, the “self-splicing fitness (ln)” value by setting is: (30 °C) -1.18 ± 0.15; (37 °C) -0.52 ± 0.27.
For GUCGAGCAAUAUUACGAGGC the same measures were -3.01 ± 0.21 and -3.06 ± 0.31.
As for ACGAAGCAAUAUUACGAUGC, the “self-splicing fitness (ln)” value was -3.28 ± 0.21 (30 °C) and -2.01 ± 0.37 (37 °C).
In the case of ACUAAGCAAUAUUACGAACC, the “self-splicing fitness (ln)” value (30 °C) was -0.514 ± 0.16 and the “self-splicing fitness (ln)” value (37 °C) is -1.24 ± 0.24.
For the sequence AGCCAGCAAUAUUACGAAAA, the “self-splicing fitness (ln)” value (37 °C) was -1.63 ± 0.24.
For CCCCAGCAAUAUUACGUACA, the “self-splicing fitness (ln)” value (30 °C) was -3.37 ± 0.21 and the “self-splicing fitness (ln)” value (37 °C) was -3.5 ± 0.35.
ACCAAGCAAUAUUACGAGGG: the “self-splicing fitness (ln)” value is -2.88 ± 0.15 (30 °C) and -1.49 ± 0.12 (37 °C).
Regarding ACCUAGCAAUAUUACGGUCC, the “self-splicing fitness (ln)” value (30 °C) was -2.82 ± 0.15 and the “self-splicing fitness (ln)” value (37 °C) was -2 ± 0.15.
The matching figures for GUUUAGCAAUAUUACGGACG: -1.76 ± 0.15 and -0.693 ± 0.15.
In the case of AUGUAGCAAUAUUACGUAGA, the “self-splicing fitness (ln)” value is, setting by setting: (30 °C) -3.11 ± 0.32; (37 °C) -2.65 ± 0.29.
As to GUAAAGCAAUAUUACGUACA, the “self-splicing fitness (ln)” value was -0.0825 ± 0.078 (30 °C) and 0.111 ± 0.09 (37 °C).
The matching figures for AGUGAGCAAUAUUACGUACA: -1.72 ± 0.28 and -0.682 ± 0.36.
The matching figures for UGGUAGCAAUAUUACGCGUG: -0.581 ± 0.087 and 0.251 ± 0.1.
For CGUUAGCAAUAUUACGUGAU the same measures were -3.16 ± 0.24 and -2.45 ± 0.2.
Regarding UGUCAGCAAUAUUACGACGU, the “self-splicing fitness (ln)” value (30 °C) was -1.31 ± 0.098 and the “self-splicing fitness (ln)” value (37 °C) was -0.968 ± 0.14.
For AAAUAGCAAUAUUACGGAAU the same measures were -3.69 ± 0.17 and -2.24 ± 0.16.
The matching figures for CAACAGCAAUAUUACGAGUG: -1.59 ± 0.051 and -0.292 ± 0.071.
As for GCAAAGCAAUAUUACGCUAA, the “self-splicing fitness (ln)” value (30 °C) is -2.19 ± 0.14 and the “self-splicing fitness (ln)” value (37 °C) is -1.29 ± 0.12.
For UAAUAGCAAUAUUACGGUAA, under “37 °C”, the “self-splicing fitness (ln)” value is -1.04 ± 0.28.
With GAAGAGCAAUAUUACGUCAG, the “self-splicing fitness (ln)” value was -3.58 ± 0.2 (30 °C) and -3.03 ± 0.35 (37 °C).
The matching figures for CACUAGCAAUAUUACGGUUC: -2.4 ± 0.12 and -1.45 ± 0.16.
The matching figures for CGUCAGCAAUAUUACGGAUA: -1.02 ± 0.079 and -0.231 ± 0.086.
As for AUGGAGCAAUAUUACGAUAG, the “self-splicing fitness (ln)” value by setting is: (30 °C) -3.59 ± 0.4; (37 °C) -1.67 ± 0.32.
For UCUUAGCAAUAUUACGGCCG the same measures were -2.11 ± 0.37 and -0.349 ± 0.33.
With CGAGAGCAAUAUUACGGAAA, the “self-splicing fitness (ln)” value (30 °C) is -1.65 ± 0.33.
For the sequence AUUUAGCAAUAUUACGCAAA, the “self-splicing fitness (ln)” value is -1.86 ± 0.15 (30 °C) and -1.82 ± 0.17 (37 °C).
The matching figures for UCAUAGCAAUAUUACGGGUC: -2.94 ± 0.42 and -2.9 ± 0.35.
For UGACAGCAAUAUUACGACUG the same measures were -0.341 ± 0.06 and 0.371 ± 0.091.
In the case of CGCCAGCAAUAUUACGGCUA, the “self-splicing fitness (ln)” value (30 °C) is -0.576 ± 0.061 and the “self-splicing fitness (ln)” value (37 °C) is -0.172 ± 0.068.
GCUCAGCAAUAUUACGAUCC: the “self-splicing fitness (ln)” value was -0.823 ± 0.076 (30 °C) and -0.215 ± 0.1 (37 °C).
Consider UCUCAGCAAUAUUACGCGCU, for which the “self-splicing fitness (ln)” value (37 °C) was -3.12 ± 0.43.
Regarding GGGCAGCAAUAUUACGUCAA, the “self-splicing fitness (ln)” value (30 °C) was determined as 0.3 ± 0.08 and the “self-splicing fitness (ln)” value (37 °C) was 0.285 ± 0.088.
The matching figures for UUGUAGCAAUAUUACGUCUG: -0.639 ± 0.067 and 0.19 ± 0.086.
CCAGAGCAAUAUUACGAAGC: the “self-splicing fitness (ln)” value is -3.1 ± 0.24 (30 °C) and -2.71 ± 0.27 (37 °C).
Regarding UACGAGCAAUAUUACGUCUU, the “self-splicing fitness (ln)” value (30 °C) was -3.95 ± 0.33 and the “self-splicing fitness (ln)” value (37 °C) is -3.41 ± 0.24.
The matching figures for AAAGAGCAAUAUUACGUCAC: -2.56 ± 0.5 and -2.76 ± 0.31.
